Assay [1] has as its system MLDLQPETT-sensitized T2 cells. Description: In vitro induction of primary CTL response and cytotoxicity assay on peptide-sensitized T2 cells. The assay is classed as cell-based, human. The note with it: PBL of HLA-A2.1 donor stimulated with 80 μg/ml peptide; cytotoxicity assay on day 49; background: T2 with irrelevant peptide ATELQTTIH
On the procedure: The expression of HLA-A2.1 on 174CEM.T2 cells (T2) is increased by incubating T2 cells in medium containing relevant peptide. T2 cells will present the relevant peptide bound to HLA-A2.1 in high amount and therefore are good antigen presenting cells (APC). In the response inducing method described below the T2 cell line is used as APC and post-Ficoll mononuclear cells are used as responder cells.
T2 cells in a concentration of 2×10^6 cells per ml were incubated for 13 h at 37° C. in a T 25 flask (Becton Dickinson, Falcon, Plymouth Engeland cat.nr. 3013) in serum-free IMDM (=Iscoves Modified Dulbecco's Medium: Biochrom KG, Seromed Berlin, Germany, cat.nr. F0465) with glutamine (2 mM, ICN Biochemicals Inc., Costa Meisa, USA, cat.nr. 15-801-55), antibiotics (100 IU/ml penicilline (Brocades Pharma, Leiderdorp, The Netherlands, 100 μg/ml kanamycine (Sigma, St. Louis, USA, K-0245)) and the selected peptide […] (=JWK3; SEQ ID NO:15) in a concentration of 80 μg/ml.
These incubated T2 cells were spun down and subsequently treated in a density of 20×10^6 cells/ml with Mitomycine C (50 μg/ml) in serum-free RPMI (Gibco Paislan, Scotland, cat.nr. 041-02409) medium for 1 h at 37° C. Hereafter the T2 cells were washed three times in RPMI. […]

Assay [2] deals with T1, HLA-A2.1 (Homo sapiens, UniProt P04439, D140Y/D185E/D98H/E176V/E277Q/G131W/G231S/I119V/I121R/I166T/I218V/L300P/L318F/N151K/N90K/P208A/P217A/Q86G/Q94H/R138H/R169H/T345S).
T1 construct: endogenous in cells; host or cells: 174CEM.T2
The assay is classed as cell-based. The following applies: HPV16 peptides, 200 μg/ml peptide, 16 hours, 174CEM.T2 cells. On the procedure:
Of all peptides a dilution of 1 mg/ml in 0.9% NaCl was made.
174CEM.T2 cells were cultured in Iscovel's modified Dulbecco's medium (Biochrom KG Seromed Berlin, Germany: F0465) supplemented with 100 IU/ml penicillin (Biocades Pharma, Leiderdorp, The Netherlands), 100 μg/ml kanamycin (Sigma St. Louis, USA:K-0254), 2 mM glutamine (ICN Biomedicals Inc. Costa Mesa, Calif., USA:15-801-55) and 10% fetal calf serum (FCS, Hyclone Laboratories Inc. Logan, Utah, USA:A-1115-L). Cells were cultured at a density of 2.5×10^5/ml during 3 days at 37° C., 5% CO2 in humified air.
174CEM.T2 cells were washed twice in culture medium without FCS and put in serum-free culture medium to a density of 2×10^6 cells/ml. Of this suspension 40 μl was put into a V bottomed 96 well plate (Greiner GmbH, Frickenhausen, Germany: 651101) together with 10 μl of the individual peptide dilutions (of 1 mg/ml). The end concentration is 200 μg/ml peptide with 8×10^4 174CEM.T2 cells. This solution was gently agitated for 3 minutes after which an incubation time of 16 hours at 37° C., 5% CO2 in humified air took place. Then cells were washed once with 100 μl 0.9% NaCl, 0.5% bovine serum albumin (Sigma St. Louis, USA: A-7409), 0.02% NaN3 (Merck Darmstadt, Germany:822335). After a centrifuge round of 1200 rpm the pellet was resuspended in 50 μl of saturating amounts of HLA-A2.1 specific mouse monoclonal antibody BB7.2 for 30 minutes at 4° C. Then cells were washed twice and incubated for 30 minutes with F(ab)2 fragments of goat anti-mouse IgG that had been conjugated with […] (Tago Inc Burlingame, Calif., USA: 4350) in a dilution of 1:40 and a total volume of 25 μl.
After the last incubation, cells were washed twice and fluorescence was measured at 488 nanometer on a FACScan flow-cytometer (Becton Dickinson, Franklin Lakes, N.J., USA).
The 174CEM.T2 cell line expresses “empty” and unstable HLA-A2.1 molecules that can be stabilized when a peptide is binding to the peptide presenting groove of these molecules. […] This leads to an increase in cell surface expression of the HLA-A2.1 molecule.
With background fluorescence level (without adding peptides) set on a Fluorescence Index level of 0, binding of a peptide was regarded positive when the level of fluorescence was ≧0.5.

“MLDLQPETT [HPV16 peptide 13, residues 12-20 of HPV16 protein E7]”: the “specificity of killing by peptide-induced bulk CTL culture” value in assay [1] is “seemed to be specific for killing MLDLQPETT (SEQ ID NO:15)-sensitized T2 cells”. For the same sequence, the “MF (mean HLA-A2.1 fluorescence)” value in assay [2] was found to be 217.6. For the same sequence, in assay [2] (background set on 0, binding positive when ≧0.5), the “FI (Fluorescence Index)” value stood at 2.3.
